Reference: patent publication US20190153103A1 (AbbVie / Abbott, published 2019)

T1: human BMPR1B coated on MSD plates (construct not stated) (human, UniProt O00238 14-126, limits assumed)
T1 construct: also called BMPR1B receptor
T1 sequence: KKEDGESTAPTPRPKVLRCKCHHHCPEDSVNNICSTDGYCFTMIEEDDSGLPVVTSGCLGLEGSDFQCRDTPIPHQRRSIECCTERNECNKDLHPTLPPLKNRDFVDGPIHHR

T2: hBMPR1B-His (human BMPR1B extracellular domain, residues K14 to R126, with C-terminal 9x-Histidine tag) (human, UniProt O00238 14-126)
T2 construct: Residues K14-R126 are counted on the hBMPR1B ORF (NM_001203); The IgK signal peptide of the vector is left out; also called hBMPR1B-CHis; human BMPR1B-his
T2 sequence: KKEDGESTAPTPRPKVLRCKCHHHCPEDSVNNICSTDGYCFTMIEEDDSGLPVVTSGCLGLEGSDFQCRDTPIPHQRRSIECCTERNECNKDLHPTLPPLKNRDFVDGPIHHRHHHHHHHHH

T3: rat-his
T3 construct: soluble analyte of the Biacore runs; also called rSCRx91-his; rBMPR1B-CHis
T3 chain: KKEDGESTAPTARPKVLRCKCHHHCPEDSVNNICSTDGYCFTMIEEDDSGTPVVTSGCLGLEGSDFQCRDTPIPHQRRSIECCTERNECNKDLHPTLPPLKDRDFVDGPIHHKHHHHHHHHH

T4: BMP4-his (human, UniProt P12644 293-408, limits assumed)
T4 construct: not shown: his tag
T4 sequence (looked up): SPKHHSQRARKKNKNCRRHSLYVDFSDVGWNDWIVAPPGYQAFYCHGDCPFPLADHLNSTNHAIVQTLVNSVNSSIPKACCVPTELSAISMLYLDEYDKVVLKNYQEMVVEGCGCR

B1: SC91.19 (antibody, V domains shown)
VH: QIQLVQSGPELKKPGETVKISCKASGYTFTTYGMNWVKQAPGKGLKWMGWINTYSGVPSSANDFKGRFAFSLETSASTAYLQINNLKNEDTATYFCARSELRNWYFDVWGTGTTVTVSS
VL: SFVMTQTPKFLLVSAGDRVTITCKASQSVGNDVAWYQQKPGQSPKLLIYYASNRYTGVPDRFTGSGYGTDFTFTISTVQAEDLAVYFCQQDYSSPFTFGSGTKLEMK
B2: SC91.15 (murine anti-BMPR1B antibody) (antibody, V domains shown)
VH: QVQLQQPGAELVMPGASVKLSCKASGYTLTNYWMHWVKQRPGQGLEWIGDIDPSDTYTNYNHKFKGKATLTVDKSSSTAYMQLSSLTSEDSAVYYCARSGWDYFDSWGQGTTLTVSS
VL: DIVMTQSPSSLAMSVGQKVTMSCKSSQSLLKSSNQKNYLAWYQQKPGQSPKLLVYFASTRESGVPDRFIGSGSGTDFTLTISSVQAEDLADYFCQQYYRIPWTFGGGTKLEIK
notes: Murine hybridoma antibody
B3: SC91.11 (antibody, V domains shown)
VH: QVQLQQPGAELVKPGASVKLSCKASGYTFTTYWMHWVKQRPGRGLEWIGRIDPNSGGTKYNEKFKSKATLTVDKPSSTACMQLSSLTSEDSAVYYCASRRGDIDVWGTGTTVTVSS
VL: DIVMTQSQKFMSTSVGDRVSVTCKASQNVGTNVFWYQQKPGQSPKALIYAASYRYSGVPDRFTGSGSGTDFTLTISNVQSEDLADYFCQQYDSYPLTFGDGTKLELR
B4: BMP2 fused to a human Fc fragment (Fc fusion, UniProt P12643 283-396, looked up)
chain: QAKHKQRKRLKSSCKRHPLYVDFSDVGWNDWIVAPPGYHAFYCHGECPFPLADHLNSTNHAIVQTLVNSVNSKIPKACCVPTELSAISMLYLDENEKVVLKNYQDMVVEGCGCR
notes: not shown: human Fc fragment
B5: SC91.1 (murine anti-BMPR1B antibody) (antibody, V domains shown)
VH: QVQLQQPGAELVKPGASVKLSCKASGYTFTSYWMQWVKQRPGQGLEWIGEIDPSDNYTLYNQKFKGKATLTVDTSSSTAYMQLSSLTSEDSAVYYCARFGYYVDYWGLGTTLTVSS
VL: DVVMTQTPLSLPVSLGDQASIFCRSSQSLVHSTGNTYLHWYLQKPGQSPKLLIYKVSNRFSGVPDRFSGSGSGTDFTLKISRVEAEDLGVYFCSQSTHVPFTFGSGTKLEIK
notes: Murine hybridoma antibody with a kappa light chain
B6: SC91.3 (murine anti-BMPR1B antibody) (antibody, V domains shown)
VH: QVQLQQPGAELVKPGASVKLSCKASGYTFTSYWMQWVKQRPGQGLEWIGEIDPSDSYTLYNQKFKGKATLTVDTSSSTAYMQLSSLTSEDSAVYFCARFGYYIEYWGQGTTLTVSS
VL: DVVMTQTPLSLPVSLGDQASISCRSSQSLVHSTGNTYLHWYLQKPGQSPKLLIYKVSNRFSGVPDRFSGSGSGTDFTLKISRVEAEDLGVYFCSQSTHVPFTFGSGTKLEIK
notes: Murine hybridoma antibody
B7: SC91.20 (antibody, V domains shown)
VH: QVQLQQPGAEVVRPGASLKLSCKASGYTFTSYWMQWIKQRPGQGLEWIGEIDPSDNYTMYNQKFKGKATLTVDTSSSTAYMQLSSLTSEDSAVYFCARFGFYVDYWGQGTTLTVSS
VL: DVVMTQTPLSLPVSLGDQASISCRSSQSLVHSTGNTYLHWYLQKPGQSPNLLIYKVSNRFSGVPDRFSGSGSGTDFTLKISRVEAEDLGVYFCSQSTHVPFTFGSGTKLEIK
B8: SC91.27 (murine anti-BMPR1B antibody) (antibody, V domains shown)
VH: QVQLQQPGAEVVKPGASVKLSCKASGYTFTNYWMQWVKQRPGQGLEWIGEIDPSDRYTMYNQKFKGKATLIVDTSSSTAYMQLSSLTSEDSAVYFCARFGYYVDYWGQGTTLTVSS
VL: DVVMTQTPLSLPVSLGDQASISCRSSQSLVHSTGNTYLHWYLQKPGQSPNLLIYKVSNRFSGVPDRFSGSGSGTDFTLKISRVEAEDLGVYFCSQSTHVPFTFGSGTKLEIK
notes: Murine hybridoma antibody with the same VL as SC91.20
B9: SC91.9 (murine anti-BMPR1B antibody) (antibody, V domains shown)
VH: QVQLQQPGAELVKPGASVKLSCKASGYTFISYWMHWVKQRPGQGLEWIGMIHPNSGSTNYNESFKSKATLTVDKSSSTAYMQLSSLTSEDSAVYYCARDLLIATVVVTPYFAYWGQGTILTVSS
VL: DIQMTQTTSSLSASLGDRVTISCRASQDISNFLNWYQQKPDGTIKFLIYYTSRLHSGVPSRFSGSGSGTDYSLTIRNLEQEDIATYFCQQGNTLPYTFGGGTKLEIK
notes: Murine hybridoma antibody
B10: hBMPR1B-Fc (human BMPR1B extracellular domain, residues K14 to R126, fused to human IgG2 Fc) (Fc fusion)
chain: KKEDGESTAPTPRPKVLRCKCHHHCPEDSVNNICSTDGYCFTMIEEDDSGLPVVTSGCLGLEGSDFQCRDTPIPHQRRSIECCTERNECNKDLHPTLPPLKNRDFVDGPIHHR
notes: also called BMPR1B fused to human Fc fragment; not shown: human IgG2 Fc protein

Key:
[1] = target: T1, human BMPR1B coated on MSD plates …; assay: MSD ELISA, BMP4 blocked; set-up: concentration or dose not given beside the values
[2] = target: T5, rat BMPR1B overexpressed on the surface of HEK293T cells (N-terminal Asp-Lys epitope tag, … (rat, UniProt A0A8I6A0G0 62-550)); assay: cell-based or functional assay
[3] = target: T6, human BMPR1B overexpressed on the surface of HEK293T cells (N-terminal Asp-Lys epitope tag, … (human, UniProt O00238 14-502)); assay: cell-based or functional assay
[4] = target: T2, hBMPR1B-His (human BMPR1B extracellular …); assay: Biacore
[5] = target: T5, rat BMPR1B overexpressed on the surface …; assay: flow cytometry
[6] = target: T6, human BMPR1B overexpressed on the …; assay: flow cytometry
[7] = target: B10; assay: ELISA
[8] = target: T7, irrelevant Fc-tagged protein; assay: ELISA
T7 construct: ELISA control; also called irrelevant Fc construct

[9] = target: T8, BMPR1A-Fc (recombinant protein used in the screen 1 ELISA) (human, UniProt P36894 24-152, limits assumed); assay: ELISA
T8 construct: also called human BMPR1A; not shown: Fc

[10] = target: T2, hBMPR1B-His (human BMPR1B extracellular …); assay: ELISA
[11] = target: T1, human BMPR1B coated on MSD plates …; assay: MSD ELISA, BMP2 blocked; set-up: concentration or dose not given beside the values
[12] = target: T3, rat-his; assay: Biacore, 200 nM
[13] = target: T3, rat-his; assay: Biacore
[14] = target: T9, Cyno-his (cynomolgus); assay: Biacore
T9 construct: extracellular domain; soluble analyte of the Biacore runs; also called cSCRx91-his; cBMPR1B-CHis

[15] = target: T2, hBMPR1B-His (human BMPR1B extracellular …); assay: SPR, Biacore T200: BMP2-Fc captured on anti-human capture chip, BMPR1B-his injected at 2.5-40 µM, 1:1 model
[16] = target: T4, BMP4-his; assay: SPR, Biacore T200: BMPR1B-Fc captured on anti-human capture chip, BMP4-his injected at 31.3-500 nM, 1:1 model

T8 sequence (P36894 24-152 limits assumed): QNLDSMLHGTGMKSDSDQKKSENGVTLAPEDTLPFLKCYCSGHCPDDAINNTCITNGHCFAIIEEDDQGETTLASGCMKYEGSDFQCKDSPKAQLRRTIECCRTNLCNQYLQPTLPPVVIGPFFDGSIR

Row | % inhibition [1] | % live, Fab-saporin, 100pM [2] | % live, Fab-saporin, 100pM [3] | Kd [4] | Flow cytometry MFI [5] | Flow cytometry MFI [6] | ELISA [7] | ELISA [8] | ELISA [9] | ELISA [10] | % inhibition [11] | binding result [12] | Kd [13] | Kd [14] | Kd [15] | Kd [16] | Binder
1 | 61% | 102% | 14.3% | 8.46 nM | 470 | 7250 | 0.737 | 0.05 | 0.121 | 1.46 | 32% | binds | – | – | – | – | B1
2 | 92% | 18.5% | 11.9% | 0.922 nM | 4590 | 5610 | 0.829 | 0.05 | 0.055 | 1.19 | 11% | – | 1.5 nM | 0.947 nM | – | – | B2
3 | – | 68.7% | 15.5% | 1.15 nM | 4660 | 7330 | 0.387 | 0.04 | 0.117 | 0.791 | – | binds | – | 11.1 nM | – | – | B3
4 | – | – | – | – | – | – | – | – | – | – | – | – | – | – | 61000 nM | – | B4
5 | 75% | 15.6% | 9.53% | 2.34 nM | 5080 | 5520 | 0.483 | 0.039 | 0.031 | 1.17 | 38% | – | 3.34 nM | 5.1 nM | – | – | B5
6 | – | 16% | 9.34% | 0.163 nM | 5840 | 6840 | 0.423 | 0.039 | 0.035 | 0.883 | – | binds | – | 0.503 nM | – | – | B6
7 | – | 18.2% | 10.4% | 0.934 nM | 5940 | 7480 | 0.462 | 0.041 | 0.116 | 1.01 | – | – | 1.91 nM | 2.3 nM | – | – | B7
8 | – | 17.9% | 11.9% | 1.98 nM | 5970 | 6880 | 0.417 | 0.042 | 0.043 | 0.855 | – | – | 2.14 nM | 2.56 nM | – | – | B8
9 | 93% | 14.7% | 9.44% | 0.322 nM | 5270 | 5480 | 0.551 | 0.042 | 0.056 | 1.41 | 50% | – | 0.181 nM | 0.153 nM | – | – | B9
10 | – | – | – | – | – | – | – | – | – | – | – | – | – | – | – | 1.2 nM | B10
